Patent US20250236644A1 (University of Washington, published 2025)

Experiments:
effector protein 3hb03 = target: T1, effector protein 3hb03; assay: SEC binding experiment
T1 construct: Three-helix bundle built around peptide cs074B
T1 chain: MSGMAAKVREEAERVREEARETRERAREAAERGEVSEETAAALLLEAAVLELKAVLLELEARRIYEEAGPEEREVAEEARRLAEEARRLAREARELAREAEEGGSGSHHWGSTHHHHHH

effector protein 3hb04 = target: T2, effector protein 3hb04; assay: SEC binding experiment
T2 construct: Three-helix bundle built around peptide cs074B
T2 chain: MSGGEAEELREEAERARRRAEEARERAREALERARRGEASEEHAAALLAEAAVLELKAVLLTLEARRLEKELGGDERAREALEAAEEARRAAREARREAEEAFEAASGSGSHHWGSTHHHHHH

effector protein 3hb08 = target: T3, effector protein 3hb08; assay: SEC binding experiment
T3 construct: Three-helix bundle built around peptide cs074B
T3 chain: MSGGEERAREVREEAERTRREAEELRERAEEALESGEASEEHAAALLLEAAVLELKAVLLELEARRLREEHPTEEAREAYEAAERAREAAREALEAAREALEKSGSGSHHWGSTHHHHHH

effector protein 3hb11 = target: T4, effector protein 3hb11; assay: SEC binding experiment
T4 construct: Three-helix bundle built around peptide cs074B
T4 chain: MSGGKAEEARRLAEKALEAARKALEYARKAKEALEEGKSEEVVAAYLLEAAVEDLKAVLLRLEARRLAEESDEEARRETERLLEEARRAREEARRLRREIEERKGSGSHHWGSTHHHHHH

effector protein 3hb12 = target: T5, effector protein 3hb12; assay: SEC binding experiment
T5 construct: Three-helix bundle built around peptide cs074B
T5 chain: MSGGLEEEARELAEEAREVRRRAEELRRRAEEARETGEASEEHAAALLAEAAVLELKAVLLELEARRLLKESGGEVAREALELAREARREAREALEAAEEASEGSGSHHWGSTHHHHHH

[1] = target: T6, TAMRA-labeled effector peptide cs074B (5(6)-TAMRA label coupled on resin after synthesis); assay: fluorescence polarization titration; TAMRA-peptide constant, hinge varied
T6 construct: Chemically synthesized; also called TAMRA-cs074B
T6 peptide: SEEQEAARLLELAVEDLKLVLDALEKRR
From the text: (§1) We used our hinge design approach to generate hinge-peptide pairs that span a wide structural space (FIGS. 1D, 2A, 6, 7). We experimentally tested multiple rounds of designs, using both DHRs (21) and helical junctions (22) as input scaffolds, and improving individual steps of the design pipeline between iterations. Designs for which hinge and GFP-fused peptide were soluble and interacted as judged by size exclusion chromatography (SEC, FIGS. 7-8) were selected for further characterization by fluorescence polarization (FP). […] To circumvent the bottleneck of finding soluble peptide sequences, we also sought to design hinges that bind to a given target peptide. Starting from design cs201, we used a modified version of our design pipeline to redesign the hinge to bind peptides cs074B or cs221B, respectively, which have similar hydrophobic fingerprints as the original target peptide cs201B.
(§2) All FP measurements were performed at 25° C. in 96-well plates (Corning 3686) using a Synergy Neo2™ plate reader and a 530/590 nm filter cube. The buffer for all FP measurements was 20 mM Tris-HCl, 100 mM NaCl, 0.05% v/v TWEEN20 at pH 8. Titrations were carried out in 96-well format, with 4 replicates per plate and 24 data points per titration (23 steps of two-fold serial dilution of hinges in the presence of TAMRA-labeled peptide at a constant concentration between 0.1 nM and 1 nM) with a final sample volume of 80 μl per well. Titration plates were incubated overnight at room temperature before measuring to ensure complete equilibration. The polarization signal S (as calculated by the Neo2™ software) was fitted to the equation

[2] = target: T6, TAMRA-labeled effector peptide cs074B; assay: fluorescence polarization kinetics; slope of kapp against hinge concentration
Description: as §2
For FP kinetics experiments a 2× peptide solution and 8 different 2× hinge solutions at different concentrations were prepared separately. 40 μl of each hinge solution were mixed with 40 μl peptide solution using a multichannel pipet and the measurement was started immediately after mixing. Polarization signals S at each concentration were fitted individually to the equation

[3] = target: T7, TAMRA-labeled effector peptide cs221B (5(6)-TAMRA label coupled on resin after synthesis); assay: FP titration, 1 nM TAMRA-labeled peptide, reducing conditions
T7 construct: also called TAMRA-cs221B
T7 peptide: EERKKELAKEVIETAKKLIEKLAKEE
From the text: To test the effect of the conformational pre-equilibrium on effector binding, we introduced disulfide “staples” that lock the hinge in one conformation. Using FP we analyzed peptide binding to stapled versions of hinge cs221 (FIG. 5A,B). […] Using the pre-equilibrium model described above, the observed association rates provide an estimate of the fraction of hinge that is in state Y in absence of the peptide: a 200-fold higher observed on rate for the locked Y variant indicates a 200-fold higher fraction of hinge in state Y compared to the original hinge. Assuming that the locked Y variant is 100% in state Y and assuming that the microscopic rate constant k₂ is identical for the locked Y hinge and state Y of the original hinge, this would indicate that the original hinge is 99.5% in state X and 0.5% in state Y at equilibrium.
All FP measurements were performed at 25° C. in 96-well plates (Corning 3686) using a Synergy Neo2™ plate reader and a 530/590 nm filter cube. The buffer for all FP measurements was 20 mM Tris-HCl, 100 mM NaCl, 0.05% v/v TWEEN20 at pH 8. […] The polarization signal S (as calculated by the Neo2™ software) was fitted to the equation

effector protein 3hb24 = target: T8, effector protein 3hb24; assay: SEC binding experiment
T8 chain: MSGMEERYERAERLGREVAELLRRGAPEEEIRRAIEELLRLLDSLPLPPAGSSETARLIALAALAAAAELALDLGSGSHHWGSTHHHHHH

[4] = target: T9, TAMRA-labeled effector peptide cs230B (5(6)-TAMRA label coupled on resin after synthesis); assay: fluorescence polarization titration; TAMRA-peptide constant, hinge varied
T9 construct: also called TAMRA-cs230B
T9 peptide: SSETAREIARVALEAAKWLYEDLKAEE
From the text: as §1, §2

effector protein 3hb32 = target: T10, effector protein 3hb32; assay: SEC binding experiment
T10 chain: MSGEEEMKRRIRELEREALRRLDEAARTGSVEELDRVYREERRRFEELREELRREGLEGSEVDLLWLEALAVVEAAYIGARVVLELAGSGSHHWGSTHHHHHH

[5] = target: T11, TAMRA-labeled effector peptide cs269B (5(6)-TAMRA label coupled on resin after synthesis); assay: fluorescence polarization titration; TAMRA-peptide constant, hinge varied
T11 construct: also called TAMRA-cs269B
T11 peptide: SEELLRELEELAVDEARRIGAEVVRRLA
From the text: as §1, §2

[6] = target: T11, TAMRA-labeled effector peptide cs269B; assay: fluorescence polarization kinetics; 5 nM TAMRA-peptide, slope of kapp against hinge concentration
[7] = target: T6, TAMRA-labeled effector peptide cs074B; assay: fluorescence polarization titration; TAMRA-peptide constant, unlabeled hinge varied
Description: as §2

B1: hinge cs074 (designed binder)
chain: MSGDEEVQEAVERAEELREEAEELIKKARKTGDPELLRKALEALKEAVRAVKEAIKRNPDNEEAVKTAVRLARELLKVAEELKERAEKTGDPRLLLLAAEAIAWAIEAVFLAAKASENTEGALEAARAAVKLAEVAKRIAKLLQRDAKKEGDPELLKLALRALELAVRAVELAIKENPDNEEAVETAKRLAEELRKVAELLEERAKETGDPELQELAKRAKEVADRARELAKKSNPNNGSGSHHWGSTHHHHHH
notes: De novo designed two-state hinge; the entry includes the C-terminal SNAC/His tag
B1: binds (effector protein 3hb03); binds (effector protein 3hb04); binds (effector protein 3hb08). For the same binder, the binding result (effector protein 3hb11) was “binds”, the binding result (effector protein 3hb12) was “binds” and the Kd [1] was 0.5 nM. It also gave a kon [2] of 64000 M⁻¹ s⁻¹.

B2: variant cs221_lockedX, reducing conditions (DTT) (designed binder)
chain: MSGEMKEEIRRLAEELRERTKDEEVRELAREAARLAEESDDEEVKEVVKKALEAALKSKDEEVIRLLLLAAVCAAAAARSGSPEEKLEIAKKALELAMKSKDEEVIRLALLAAVLACRSDDEEVLKKVKEALEKAMESKDVEEIRERLREAVEVARAGSGSHHWGSTHHHHHH
notes: also called locked X with DTT
B2: binds [3].

B3: hinge cs230 (designed binder)
chain: MSGTKEEKERIERIEKEVRSPDPENILEAVRKALELFRENPSEEAKELLKRAIEAALRSEDERAILEALRAALEAYRQGAGDREGLLEAIRVAIRRAAESEDERAILEAVRAARILLEAERTEEAKELLRVAIERAKKSPDPEAQREAKRAEEELRKEDGSGSHHWGSTHHHHHH
In the case of B3, the binding result (effector protein 3hb24) is reported as “binds” and the Kd [4] is reported as 2800 nM.

B4: hinge cs269 (designed binder)
chain: MSGDEERVRELAERASREAERAVRSGSEESLEEALRNVEELIRKSDSEEARVRVAEAAVRAAAEAAARSGTVEAAAVAVIFTARVLQIVSSSEEAVVRVLAAAAAAAARVAVELGTEEALETALRFVELLVRLADSDEARQRVLRSASESARRSAEESGSERAREVAERFRERIERNQGSGSHHWGSTHHHHHH
With B4 the binding result (effector protein 3hb32) was “binds”, the Kd [5] was 83 nM and the kon [6] was 2500 M⁻¹ s⁻¹.

B5: FRET(extension) cs074F, unlabeled (designed binder)
chain: DEEVQEAVERAEELREEAEELIKKARKTGDPELLRKALEALECAVRAVEEAIKRNPDNDEAVETAVRLARELKKVAEELQERAKKTGDPELLKLALRALKVAVRAVKLAIKSNPDNEEAVKTAVRLARELLKVAEELKERAEKTGDPRLLLLAAEAIAWAIEAVFLAAKASENTEGALEAARAAVKLAEVAKRIAKLLQRDAKKEGDPELLKLALRALELAVRAVELAIKENPDNDEAVETAVRLARELKKVAEELQERAKKTGDPELLKLALRALEVAVRAVELAIKSNPDNEEAVETAKRLAEELRKVAELLEERACETGDPELQELAKRAKEVADRARELAKKSNPNNGSHHHHHH
notes: also called unlabeled extended hinge cs074F
With B5 the kon [2] was 100000 M⁻¹ s⁻¹ and the Kd [7] was less than 2 nM.
